Among the data in publication PMC3214626 are stoichiometry N values, retold here.

This assay concerns the target Slc1-FLAG (SycE-like chaperone 1; CT043) (Chlamydia trachomatis). The assay is described as follows: SEC. A general note: Size exclusion chromatography separates by hydrodynamic size, large species first.

As to “Slc1-FLAG (SycE-like chaperone 1; CT043) (natural protein)”, the stoichiometry N – broadly, the number of molecules, sites or subunits per partner or assembly – was 2.
